Data taken from patent US20080039402A1 (UNIVERSITE BORDEAUX 2, published 2008).
Blank lines part the entries; values can stand above or below the molecule they belong to. Positions of bridges follow the written chain, without caps; N, C: chain ends. Non-standard residues stand in square brackets, D forms with d. No end group written: not given here. βAla = NCCC(=O)O; Sar = CNCC(=O)O

Assays:
[1] = biological target: T1, CD23 (FCεRII) on human CD23+ cells (human, UniProt P06734 1-321); test: cell-based or functional assay
T1 sequence (looked up): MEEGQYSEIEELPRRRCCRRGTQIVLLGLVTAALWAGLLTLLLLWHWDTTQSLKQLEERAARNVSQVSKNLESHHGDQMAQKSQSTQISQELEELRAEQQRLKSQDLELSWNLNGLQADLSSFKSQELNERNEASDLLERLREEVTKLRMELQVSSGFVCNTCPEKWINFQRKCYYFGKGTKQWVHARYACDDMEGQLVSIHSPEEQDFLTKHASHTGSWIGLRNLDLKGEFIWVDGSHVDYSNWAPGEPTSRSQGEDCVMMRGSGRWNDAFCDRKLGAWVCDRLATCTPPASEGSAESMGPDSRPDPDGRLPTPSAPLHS

[2] = biological target: T1, CD23 (FCεRII) on human CD23+ cells; test: cytofluorometry; CD23+ cells pre-incubated with peptide, then CD23-Ab; Experiment 1
[3] = biological target: T1, CD23 (FCεRII) on human CD23+ cells; test: cytofluorometry; CD23+ cells pre-incubated with peptide, then CD23-Ab; Experiment 2
[4] = biological target: T1, CD23 (FCεRII) on human CD23+ cells; test: cytofluorometry; CD23+ cells pre-incubated with peptide, then CD23-Ab; Experiment 3
[5] = biological target: T1, CD23 (FCεRII) on human CD23+ cells; test: cytofluorometry; CD23+ cells pre-incubated with peptide, then IgE/anti-IgE-FITC; Experiment 1
[6] = biological target: T1, CD23 (FCεRII) on human CD23+ cells; test: cytofluorometry; CD23+ cells pre-incubated with peptide, then IgE/anti-IgE-FITC; Experiment 2
[7] = biological target: T1, CD23 (FCεRII) on human CD23+ cells; test: inhibition of anti-CD23-FITC mAb binding to CD23+ cells; Activity grade

Molecule: Compound 489 (NH2 G[allyl-] N W G[allyl-]) (peptide)
% Inhibition (nitrites; inhibition of iNOS production by activated CD23+ macrophages) [1]: 62%

Molecule: Compound 492 (Ac n w CO2H) (peptide)
% Inhibition (nitrites; inhibition of iNOS production by activated CD23+ macrophages) [1]: 77%

Molecule: Compound 411 (Ac N W CO2H) (peptide)
% Inhibition (nitrites; inhibition of iNOS production by activated CD23+ macrophages) [1]: 84%

Molecule: unrelated control peptide (pNu)
TNF-α in supernatant of CD23+ cells, pNu + CD23-Ab, Experiment 1 [1]: 162 pg TNF-α/ml
TNF-α in supernatant of CD23+ cells, pNu + CD23-Ab, Experiment 2 [1]: 132 pg TNF-α/ml
[NO2-], macrophages from synovial fluid of Rheumatoid Arthritis patients, pNu + CD23-Ab, Experiment 1 [1]: 15.2 µM
[NO2-], macrophages from synovial fluid of Rheumatoid Arthritis patients, pNu + CD23-Ab, Experiment 2 [1]: 14.4 µM
% of fluorescence intensity recovered, compared to cells incubated in medium alone [2]: 120%
% of fluorescence intensity recovered, compared to cells incubated in medium alone [3]: 88%
% of fluorescence intensity recovered, compared to cells incubated in medium alone [4]: 94%
% of fluorescence intensity recovered, compared to cells incubated in medium alone [5]: 73%
% of fluorescence intensity recovered, compared to cells incubated in medium alone [6]: 110%

Molecule: Compound 410 (Ac N W BetaA CO2H) (peptide)
% Inhibition (nitrites; inhibition of iNOS production by activated CD23+ macrophages) [1]: 61%

Molecule: FHENWPT [P30M (F H E N W P T)]
% Inhibition (nitrites; inhibition of iNOS production by activated CD23+ macrophages) [1]: 76%

Molecule: FH[βAla]NWPS [Compound 340]
binding result [7]: binds

Molecule: HENWP-NH2 [Compound 249]
binding result [7]: binds

Molecule: HENWS (cyclic H2T (N-terminus amino group to C-terminus carboxyl group linkage)) [Compound 437]
% Inhibition (nitrites; inhibition of iNOS production by activated CD23+ macrophages) [1]: 56%

Molecule: FHSQWPN [FHSQWPN (p30E)]
% Inhibition (nitrites; inhibition of iNOS production by activated CD23+ macrophages) [1]: 65%

Molecule: FHEQWPS [P30O (F H E Q W P S)]
% Inhibition (nitrites; inhibition of iNOS production by activated CD23+ macrophages) [1]: 73%

Molecule: Ac-HENWPS-NH2 [Compound 243]
binding result [7]: binds

Molecule: RENWPS [Compound 384]
binding result [7]: binds

Molecule: HENWGS (cyclic H2T (N-terminus amino group to C-terminus carboxyl group linkage)) [Compound 299]
% Inhibition (nitrites; inhibition of iNOS production by activated CD23+ macrophages) [1]: 74%

Molecule: HENWES (lactam N-5) [Compound 327]
% Inhibition (nitrites; inhibition of iNOS production by activated CD23+ macrophages) [1]: 60%

Molecule: HEQWPS [Compound 364]
binding result [7]: binds

Molecule: HENAPS [Compound 436]
% Inhibition (nitrites; inhibition of iNOS production by activated CD23+ macrophages) [1]: 60%

Molecule: HENWKS [Compound 333]
% Inhibition (nitrites; inhibition of iNOS production by activated CD23+ macrophages) [1]: 69%

Molecule: HENWPS [P30K (H E N W P S)]
% Inhibition (nitrites; inhibition of iNOS production by activated CD23+ macrophages) [1]: 74%

Molecule: FHENWPA [Compound 349]
binding result [7]: binds

Molecule: FHENWP [P30L (F H E N W P)]
% Inhibition (nitrites; inhibition of iNOS production by activated CD23+ macrophages) [1]: 78%

B2: Compound 290 (peptide)
peptide: HCNWCS
notes: Cys at residues 2 and 5; no disulfide is stated for this compound
binding result [7]: binds

B3: Compound 398 (peptide)
peptide: cyclo(HENW[Sar]S)
SMILES: CN1CC(=O)N[C@@H](CO)C(=O)N[C@@H](Cc2c[nH]cn2)C(=O)N[C@@H](CCC(=O)O)C(=O)N[C@@H](CC(N)=O)C(=O)N[C@@H](Cc2c[nH]c3ccccc23)C1=O
% Inhibition (nitrites; inhibition of iNOS production by activated CD23+ macrophages) [1]: 74%

Molecule: FHENW[βAla]S [Compound 328]
% Inhibition (nitrites; inhibition of iNOS production by activated CD23+ macrophages) [1]: 26%

Molecule: FHEFWPT [FHEFWPT (p30D)]
% Inhibition (nitrites; inhibition of iNOS production by activated CD23+ macrophages) [1]: 68%

Molecule: HEPWRS [Compound 289]
binding result [7]: binds

Molecule: FHKPWRA [P30G (F H K P W R A)]
% Inhibition (nitrites; inhibition of iNOS production by activated CD23+ macrophages) [1]: 55%

Next, values leading:

% Inhibition (nitrites; inhibition of iNOS production by activated CD23+ macrophages) [1]: 94%
Molecule: Compound 491 (Ac w n CO2H) (peptide)

% Inhibition (nitrites; inhibition of iNOS production by activated CD23+ macrophages) [1]: 81%
Molecule: Compound 490 (G[allyl-] N W G[allyl-] S) (peptide)

binding result [7]: binds
B1: Compound 397 (scrambled) (peptide)
peptide: SPWNEHF
notes: Comment 'scrambled'; L-amino acids, reverse order of FHENWPS

% Inhibition (nitrites; inhibition of iNOS production by activated CD23+ macrophages) [1]: 74%
Molecule: FHENWPS [FHENWPS peptide (p30A)]

binding result [7]: binds
Molecule: HENWPS-NH2 [Compound 244]

binding result [7]: binds
Molecule: HQNWPS-NH2 [Compound 400]

binding result [7]: binds
Molecule: F[βAla]ENWPS [Compound 339]

binding result [7]: binds
Molecule: HENWPSG (cyclic H2T (N-terminus amino group to C-terminus carboxyl group linkage)) [Compound 298]

binding result [7]: binds
Molecule: HPNWRS [Compound 281]

binding result [7]: binds
Molecule: FHENWAS [Compound 316]

binding result [7]: binds
Molecule: FAENWPS [Compound 338]

% Inhibition (nitrites; inhibition of iNOS production by activated CD23+ macrophages) [1]: 43%
Molecule: FHEAWPS [Compound 331]

binding result [7]: binds
Molecule: FHANWPS [Compound 337]

binding result [7]: binds
Molecule: HNEWPS [Compound 288]
